The values that follow come from patent US20220195407, “OPTIMIZATION OF ENGINEERED MEGANUCLEASES FOR RECOGNITION SEQUENCES” (Precision BioSciences, Inc., published 2022).

Positions count from the first letter of the chain named.

Assay in all cases: cell_activity; CHO iGFFP reporter
For one series, the target named is T1, LOX 3-4 m.111 (artificial (I-CreI derived)).
T1 chain: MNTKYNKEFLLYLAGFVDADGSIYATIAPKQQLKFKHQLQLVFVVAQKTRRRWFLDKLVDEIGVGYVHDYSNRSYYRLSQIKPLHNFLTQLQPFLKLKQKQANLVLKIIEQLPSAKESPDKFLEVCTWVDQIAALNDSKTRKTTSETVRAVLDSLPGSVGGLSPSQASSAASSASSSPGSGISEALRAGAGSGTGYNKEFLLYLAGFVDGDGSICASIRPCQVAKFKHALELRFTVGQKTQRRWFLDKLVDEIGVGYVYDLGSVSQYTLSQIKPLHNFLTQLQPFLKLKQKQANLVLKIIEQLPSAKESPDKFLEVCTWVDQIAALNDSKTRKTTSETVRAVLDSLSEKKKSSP
The source says:
(§1) A CHO cell reporter system (see WO/2012/167192, FIG. 3) was used to determine whether the engineered meganucleases generated in these studies could recognize and cleave the modified LOX 3-4 recognition sequences in Table 87. To perform the assay, a pair of CHO cell reporter lines were produced, which carried a non-functional Green Fluorescent Protein (GFP) gene expression cassette integrated into the genome of the cell. The GFP gene in each cell line was interrupted by a pair of recognition sequences such that intracellular cleavage of either recognition sequence by a meganuclease would stimulate a homologous recombination event resulting in a functional GFP gene. In both cell lines, one of the recognition sequences was derived from the LOX 3-4 recognition sequence (i.e., those sequences disclosed in Table 87), and the second recognition sequence was specifically recognized by a control meganuclease called “CHO 23/24.” CHO reporter cells comprising a recognition sequence derived from the LOX 3-4 recognition sequence and the CHO 23/24 recognition sequence are referred to herein as “test cells.”
(§2) Novel engineered meganucleases derived from the LOX 3-4x.109 meganuclease were prepared by making amino acid substitutions at one or more positions in the first subunit. These engineered meganucleases were then evaluated for cleavage of the LOX 3-4 recognition sequence modified to have a GTAG center sequence (SEQ ID NO: 390) in the CHO reporter assay according to Example 1. Novel meganucleases which were modified to comprise the residues recited in the tables below were capable of cleaving the LOX 3-4 recognition sequence having a GTAG four base pair center sequence.

Another series has as its target T2, LOX 3-4 m.108 (artificial (I-CreI derived)).
T2 chain: T1 chain with N72G
Description: as §1, §2

The target in the next series is T3, LOX 3-4 m.97 (artificial (I-CreI derived)).
T3 chain: T1 chain with N72G
Description: as §1, §2

For a further series, the target named is T4, LOX 3-4 m.140 (artificial (I-CreI derived)).
T4 chain: T1 chain with A19S, K48A, S71G, N72R, R73A, K139R
Description: as §1
(§3) Novel engineered meganucleases derived from the LOX 3-4x.109 meganuclease were prepared by making amino acid substitutions at one or more positions in the first subunit. These engineered meganucleases were then evaluated for cleavage of the LOX 3-4 recognition sequence modified to have a GTAT center sequence (SEQ ID NO: 400) in the CHO reporter assay according to Example 1. Novel meganucleases which were modified to comprise the residues recited in the tables below were capable of cleaving the LOX 3-4 recognition sequence having a GTAT four base pair center sequence.

The target of a further series is T5, LOX 3-4 m.152 (artificial (I-CreI derived)).
T5 chain: T1 chain with A19S, K48A, S71N, N72R, R73A, S74A
Description: as §1, §3

In the next series the target is T6, LOX 3-4 m.149 (artificial (I-CreI derived)).
T6 chain: T1 chain with A19S, K48A, R50K, S71G, N72R, R73A, K139R
Description: as §1, §3

The target of the next series is T7, LOX 3-4 M.39 (artificial (I-CreI derived)).
T7 chain: T1 chain with A19S, K48A, N72K, R73V, K139R
Description: as §1
(§4) Novel engineered meganucleases derived from the LOX 3-4x.109 meganuclease were prepared by making amino acid substitutions at one or more positions in the first subunit. These engineered meganucleases were then evaluated for cleavage of the LOX 3-4 recognition sequence modified to have a GTGA center sequence (SEQ ID NO: 434) in the CHO reporter assay according to Example 1. Novel meganucleases which were modified to comprise the residues recited in the tables below were capable of cleaving the LOX 3-4 recognition sequence having a GTGA four base pair center sequence.

The next series addresses T8, LOX 3-4 M.36 (artificial (I-CreI derived)).
T8 chain: T1 chain with S71R, N72H, R73V, S74T, K139R
Description: as §1, §4

The target in the next series is T9, LOX 3-4 M.47 (artificial (I-CreI derived)).
T9 chain: T1 chain with K48R, S71G, N72S, R73V, Q80E
Description: as §1, §4

B1: LOX 3-4 GTAG (dsDNA)
DNA 1: GTATAGCATGTAGTATACGAAG
DNA 2: CTTCGTATACTACATGCTATAC
In the case of B1, the activity in the series with LOX 3-4 m.111 was 17 % GFP; in the series with LOX 3-4 m.108, 19.7 % GFP; in the series with LOX 3-4 m.97 it was 17.2 % GFP.

B2: LOX 3-4 GTAT (dsDNA)
DNA 1: GTATAGCATGTATTATACGAAG
DNA 2: CTTCGTATAATACATGCTATAC
As for B2, the activity with LOX 3-4 m.140 came to 13.1 % GFP; with LOX 3-4 m.152 it was 4.43 % GFP; with LOX 3-4 m.149 it was 12.9 % GFP.

B3: LOX 3-4 GTGA (dsDNA)
DNA 1: GTATAGCATGTGATATACGAAG
DNA 2: CTTCGTATATCACATGCTATAC
In the case of B3, the activity with LOX 3-4 M.39 worked out at 8.66 % GFP; with LOX 3-4 M.36, 2.75 % GFP; with LOX 3-4 M.47 it was 10.1 % GFP.
